# US20220194987A1
# Positions of bridges follow the written chain, without caps; N, C: chain ends. No end group written: not given here.
# How the values were obtained:
# [1] = target: human BKα channel ZERO isoform (human) (UniProt Q12791); experiment: cell-based or functional assay
# [2] = target: human BKα channel ZERO isoform (human) (UniProt Q12791); experiment: phagemid display panning, positive selection on HEK293 cells expressing human BKα ZERO; enrichment over the theoretical frequency in the library
"probability of opening, combination of pskan1 and pskan4, 10 microM, outside-out patches [1] [fold]","suppression of channel openings (patch clamp, HEK293 cells) (fraction of openings suppressed) [1]",fold enrichment of its motifs in the phagemid panning [2] [fold],Binder
1.6,,,CARGVYRVC (disulfide 1-9) [LS1]
1.6,,,CPPGRGAVC (disulfide 1-9) [LS4]
,0.67,> 1000,CRRGLVQVC (disulfide 1-9; also: TFA salt) [LS3]
